# Data from article PMC9352680, “A comprehensive thermodynamic model for RNA binding by the Saccharomyces cerevisiae Pumilio protein PUF4”.
# Numbering of substitutions follows the chain as printed. Names and notes keep the numbering of the source.
# T1: PUF4 RNA-binding domain (Saccharomyces cerevisiae, UniProt P25339 537-888)
# T1 sequence: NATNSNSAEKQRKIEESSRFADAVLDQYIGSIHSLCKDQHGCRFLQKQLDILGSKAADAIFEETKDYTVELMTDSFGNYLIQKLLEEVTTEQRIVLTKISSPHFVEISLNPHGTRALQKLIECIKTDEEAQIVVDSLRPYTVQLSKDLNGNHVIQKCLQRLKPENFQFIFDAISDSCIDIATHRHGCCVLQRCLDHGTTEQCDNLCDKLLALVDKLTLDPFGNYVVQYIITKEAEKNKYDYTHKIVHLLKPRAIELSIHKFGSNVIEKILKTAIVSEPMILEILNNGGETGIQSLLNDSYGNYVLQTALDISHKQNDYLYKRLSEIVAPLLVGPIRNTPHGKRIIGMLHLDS
# B1: Id_ii_S2_P3E.4_K3.3_C3.2_[C-2G]_[T-1C]_H3.3_A3.1_F3.1_T3.2_[T9C] (ssRNA)
# RNA: UUUGAUUAAUAUGAUAUCGUUCUUUCUGCACACUAUACAUUCUUUCUCGAUAUCAUAUUAAUCUUU
# B2: Id_ii_S2_P3E.4_K3.3_C3.2_[C-2A]_[T-1A]_H3.3_A3.1_F3.1_T3.2_[A10C] (ssRNA)
# RNA: B1 RNA with G28A, C29A, C38U, A39C
# B3: Id_ii_S2_P3E.4_K3.3_C3.2_[T-1A]_H3.3_A3.1_F3.1_T3.2_[T9A]_[A10T] (ssRNA)
# RNA: B1 RNA with G28C, C29A, C38A, A39U
# B4: Id_ii_S2_P3E.4_K3.3_C3.2_[C-2T]_H3.3_A3.1_F3.1_T3.2_[A10C] (ssRNA)
# RNA: B1 RNA with G28U, C29U, C38U, A39C
# B5: Id_ii_S2_P3E.4_K3.3_C3.2_[C-2A]_[T-1A]_H3.3_A3.1_F3.1_T3.2_[T9A]_[A10T] (ssRNA)
# RNA: B1 RNA with G28A, C29A, C38A, A39U
# B6: Id_ii_S2_P3E.4_K3.3_C3.2_[C-2G]_H3.3_A3.1_F3.1_T3.2_[T9C]_[A10C] (ssRNA)
# RNA: B1 RNA with C29U, A39C
# B7: Id_ii_S2_P3E.4_K3.3_C3.2_[C-2T]_H3.3_A3.1_F3.1_T3.2_[T9G]_[A10C] (ssRNA)
# RNA: B1 RNA with G28U, C29U, C38G, A39C
# B8: Id_ii_S2_P3E.4_K3.3_C3.2_H3.3_A3.1_F3.1_T3.2_[A10C] (ssRNA)
# RNA: B1 RNA with G28C, C29U, C38U, A39C
# B9: Id_ii_S2_P3E.4_K3.3_C3.2_[C-2T]_H3.3_A3.1_F3.1_T3.2_[A10G] (ssRNA)
# RNA: B1 RNA with G28U, C29U, C38U, A39G
# B10: Id_ii_S2_P3E.4_K3.3_C3.2_[C-2T]_[T-1C]_H3.3_A3.1_F3.1_T3.2_[A10C] (ssRNA)
# RNA: B1 RNA with G28U, C38U, A39C
# B11: Id_ii_S2_P3E.4_K3.3_C3.2_[T-1C]_H3.3_A3.1_F3.1_T3.2_[T9C]_[A10C] (ssRNA)
# RNA: B1 RNA with G28C, A39C
# B12: Id_ii_S2_P3E.4_K3.3_C3.2_H3.3_A3.1_F3.1_T3.2_[T9A] (ssRNA)
# RNA: B1 RNA with G28C, C29U, C38A
# B13: Id_ii_S2_P3E.4_K3.3_C3.2_[T-1A]_H3.3_A3.1_F3.1_T3.2_[A10T] (ssRNA)
# RNA: B1 RNA with G28C, C29A, C38U, A39U
# B14: Id_ii_S2_P3E.4_K3.3_C3.2_[T-1A]_H3.3_A3.1_F3.1_T3.2_[T9G]_[A10C] (ssRNA)
# RNA: B1 RNA with G28C, C29A, C38G, A39C
# B15: Id_ii_S2_P3E.4_K3.3_C3.2_[C-2A]_[T-1C]_H3.3_A3.1_F3.1_T3.2_[T9C]_[A10T] (ssRNA)
# RNA: B1 RNA with G28A, A39U
# B16: Id_ii_S2_P3E.4_K3.3_C3.2_[C-2A]_[T-1A]_H3.3_A3.1_F3.1_T3.2_[T9C]_[A10G] (ssRNA)
# RNA: B1 RNA with G28A, C29A, A39G
# B17: Id_ii_S2_P3E.4_K3.3_C3.2_[T-1C]_H3.3_A3.1_F3.1_T3.2_[T9C]_[A10T] (ssRNA)
# RNA: B1 RNA with G28C, A39U
# B18: Id_ii_S2_P3E.4_K3.3_C3.2_[C-2T]_[T-1C]_H3.3_A3.1_F3.1_T3.2_[T9C] (ssRNA)
# RNA: B1 RNA with G28U
# B19: Id_ii_S2_P3E.4_K3.3_C3.2_[C-2T]_[T-1C]_H3.3_A3.1_F3.1_T3.2_[A10T] (ssRNA)
# RNA: B1 RNA with G28U, C38U, A39U
# B20: Id_ii_S2_P3E.4_K3.3_C3.2_[C-2G]_H3.3_A3.1_F3.1_T3.2_[T9A]_[A10T] (ssRNA)
# RNA: B1 RNA with C29U, C38A, A39U
# B21: Id_ii_S2_P3E.4_K3.3_C3.2_[C-2A]_[T-1C]_H3.3_A3.1_F3.1_T3.2_[T9A] (ssRNA)
# RNA: B1 RNA with G28A, C38A
# B22: Id_ii_S2_P3E.4_K3.3_C3.2_[C-2G]_H3.3_A3.1_F3.1_T3.2_[A10C] (ssRNA)
# RNA: B1 RNA with C29U, C38U, A39C
# B23: Id_ii_S2_P3E.4_K3.3_C3.2_[T-1G]_H3.3_A3.1_F3.1_T3.2_[A10T] (ssRNA)
# RNA: B1 RNA with G28C, C29G, C38U, A39U
# B24: Id_ii_S2_P3E.4_K3.3_C3.2_[C-2T]_[T-1A]_H3.3_A3.1_F3.1_T3.2_[T9A] (ssRNA)
# RNA: B1 RNA with G28U, C29A, C38A
# B25: Id_ii_S2_P3E.4_K3.3_C3.2_[C-2T]_[T-1A]_H3.3_A3.1_F3.1_T3.2_[T9A]_[A10T] (ssRNA)
# RNA: B1 RNA with G28U, C29A, C38A, A39U
# B26: Id_ii_S2_P3E.4_K3.3_C3.2_[T-1A]_H3.3_A3.1_F3.1_T3.2_[T9C]_[A10T] (ssRNA)
# RNA: B1 RNA with G28C, C29A, A39U
# B27: Id_ii_S2_P3E.4_K3.3_C3.2_[C-2A]_H3.3_A3.1_F3.1_T3.2_[T9A]_[A10G] (ssRNA)
# RNA: B1 RNA with G28A, C29U, C38A, A39G
# B28: Id_ii_S2_P3E.4_K3.3_C3.2_[C-2T]_[T-1C]_H3.3_A3.1_F3.1_T3.2_[T9A]_[A10G] (ssRNA)
# RNA: B1 RNA with G28U, C38A, A39G
# Target: T1, PUF4 RNA-binding domain
# Assay: Mg; RNA-MaP; 20 mM Na-HEPES pH 7.4, 30 mM KOAc, 0.75 mM MgCl2, 0.1% Tween-20, 5% glycerol, 0.1 mg/mL BSA, 2 mM DTT; 25 C; 0.0125-409.6 nM protein
# Settings: tags: N-His6-TEV cleaved; C-SNAP kept, Cy3B-labelled; label: tethered on chip by stalled RNA polymerase
row,Binder,Kd [nM]
1,UCUCUUUGUAUUAUUCUCUCUU (ssRNA) [Ia_S1_P5E.1_K5.1_C5.1_H5.1_A5.1_F5.1_[A10C]_T5.1],16.4
2,B1,78
3,B2,1770
4,B3,> 2300
5,B4,475
6,B5,> 2300
7,B6,0.875
8,B7,898
9,B8,343
10,B9,> 2300
11,B10,1260
12,B11,1460
13,B12,454
14,B13,1130
15,B14,> 2300
16,B15,1810
17,B16,> 2300
18,B17,1080
19,B18,417
20,B19,940
21,B20,0.478
22,B21,1070
23,B22,0.486
24,B23,1500
25,B24,> 2300
26,B25,2150
27,B26,> 2300
28,B27,174
29,B28,> 2300
